Reference: PMC11561318 (Nature Communications, 2024)
Blank lines part the entries; values can stand above or below the binder they belong to.

Key:
[1] = molecular target: His-tagged NanoLuc-PP1α-HaloTag sensor (PP1-WT) (human, UniProt P62136 1-330, NanoBRET 618 ligand on the HaloTag); assay: FRET or BRET
LgBiT-PP1α^WT = LgBiT-PP1α^WT (human, UniProt P62136 1-330); assay: split reporter
LgBiT-PP1α^ΔC = LgBiT-PP1α^ΔC (human, UniProt P62136 1-298); assay: split reporter
Chain of LgBiT-PP1α^ΔC (P62136 1-298, stated change not applied): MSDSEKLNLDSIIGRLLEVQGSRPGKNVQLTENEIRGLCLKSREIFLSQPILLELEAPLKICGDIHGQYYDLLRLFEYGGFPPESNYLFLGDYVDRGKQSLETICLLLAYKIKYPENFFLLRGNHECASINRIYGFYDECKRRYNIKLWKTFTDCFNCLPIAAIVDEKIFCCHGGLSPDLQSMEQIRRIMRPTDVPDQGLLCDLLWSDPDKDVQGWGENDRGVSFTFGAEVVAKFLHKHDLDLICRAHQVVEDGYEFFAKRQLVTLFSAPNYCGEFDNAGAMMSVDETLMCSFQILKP

Chain of His-tagged NanoLuc-PP1α-HaloTag sensor (PP1-WT) (P62136 whole entry): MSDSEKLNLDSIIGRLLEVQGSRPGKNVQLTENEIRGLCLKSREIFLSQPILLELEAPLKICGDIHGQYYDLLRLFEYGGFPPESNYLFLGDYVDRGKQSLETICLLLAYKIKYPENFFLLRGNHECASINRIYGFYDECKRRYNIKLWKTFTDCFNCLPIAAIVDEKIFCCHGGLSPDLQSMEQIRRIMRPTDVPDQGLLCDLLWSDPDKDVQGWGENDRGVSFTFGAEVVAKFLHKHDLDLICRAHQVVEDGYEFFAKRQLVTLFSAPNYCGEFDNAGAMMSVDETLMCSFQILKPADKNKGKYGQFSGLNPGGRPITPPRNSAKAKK
Chain of LgBiT-PP1α^WT (P62136 whole entry): as above

binding result [1]: binds
B1: HIS-ASPP1-(867–1090) (domain or fragment)
chain: RTNLKKPNSERTGHGLRVRFNPLALLLDASLEGEFDLVQRIIYEVEDPSKPNDEGITPLHNAVCAGHHHIVKFLLDFGVNVNAADSDGWTPLHCAASCNSVHLCKQLVESGAAIFASTISDIETAADKCEEMEEGYIQCSQFLYGVQEKLGVMNKGVAYALWDYEAQNSDELSFHEGDALTILRRKDESETEWWWARLGDREGYVPKNLLGLYPRIKPRQRTLA

binding result [1]: binds
binding result (LgBiT-PP1α^WT): binds
binding result (LgBiT-PP1α^ΔC): binds
B2: HIS-R2-WT (natural protein)
chain: MAASTASHRPIKGILKNKTSTTSSMVASAEQPRGNVDEELSKKSQKWDEMNILATYHPADKDYGLMKIDEPSTPYHSMMGDDEDACSDTEATEAMAPDILARKLAAAEGLEPKYRIQEQESSGEEDSDLSPEEREKKRQFEMKRKLHYNEGLNIKLARQLISKDLHDDDEDEEMLETADGESMNTEESNQGSTPSDQQQNKLRSS
